This is an account of results in patent US20240390512A1, “METHODS OF TREATING CHEMOTHERAPY-RESISTANT CANCER WITH AN ANTIBODY-DRUG CONJUGATE” (DAIICHI SANKYO COMPANY, LIMITED, priority 2021, published 2024).

B1: rG055: rat anti-human CDH6 monoclonal antibody produced by hybridoma rG055; variable regions SEQ ID NO: 20 and 25 (antibody, listed as Rattus norvegicus, V domains shown)
VL: DVQMTHSPSYLAASPGESVSISCKTSKNISNYLVWYQQKPGEAYKLLIYSGSTLQSGTPSRFSGSGSGTDFTLTIRSLEPEDFGLYFCQQYYEKPFTFGSGTKLEIKRA
VH: EVQLQESGPGLVRPSQSLSLSCSVTDYSITSNYWGWIRRFPGNKMEWMGYITYSGYTSYNPSLQSRISITRDTSKNQFFLQLNSVTAEDTATYYCARSINHGGYSYVVDAWGPGASVTVSS
B2: rG061: rat anti-human CDH6 monoclonal antibody produced by hybridoma rG061; variable regions SEQ ID NO: 40 and 45 (antibody, listed as Rattus norvegicus, V domains shown)
VL: DVQMTQSPSYLAASPGESVSISCKATKSISNYLAWYQQKPGEAYKVLIYSGSTLQSGTPSRFSGSGSGTDFTLTIRSLEPEDFGLYSCQQYYEKPLTFGSGTKLEIKRA
VH: EVQLQESGPGLVKPSQSLSLTCSVTGYSITTYYWGWIRKFPGNKMEWMGYISYSGRTSYNPSLKSRMSITRDASKNQFFLQLNSVTTDDTATYYCARSPINHGGYWYFDFWGPGTMVTVSS
B3: rG019: rat anti-human CDH6 monoclonal antibody produced by hybridoma rG019; variable regions SEQ ID NO: 10 and 15 (antibody, listed as Rattus norvegicus, V domains shown)
VL: DIQMTQSPSLLSASVGDRVTLNCKASQNIYKNLAWYQQKLGEGPKLLIYDANTLQTGIPSRFSGSGSGSDFTLTISSLQPEDVATYFCQQYYSGWAFGGVTNLELKRA
VH: QVQLQQSGAELVKPGSSVKISCKASGYTFTRNFMHWIKQQPGNGLEWIGWIYCGDGETEYNQKFNGKATLTADRSSSTAYMELSRLTSEDSAVYFCARGVYGGFAGGYFDFWGQGVMVTVSS
B4: rG056: rat anti-human CDH6 monoclonal antibody produced by hybridoma rG056; variable regions SEQ ID NO: 30 and 35 (antibody, listed as Rattus norvegicus, V domains shown)
VL: DVQMTQSPSSLAASPGESVSISCRATKSIGIYLAWYQQKPGKTFKLLIYSGSTLQSGTPSRFSGSGSGTDFTLTIRSLEPEDFGLYFCQQFYENPFTFGSGTKLEIRRA
VH: EVQLQESGPGLVKPSQSLSLTCSVTDYSITTYFWGWIRKFPGNKMEWMGYMSYRGGTSYNPSLKSRISITRDTSKNQFFLQLNSVTTEDTATYYCARCPNYGGHSLVFDYWGQGVMVTVSS

The experiment relates to cynomolgus monkey CDH6. Description: Hybridoma screening by Cell-ELISA and flow cytometry. In kind it is binding. The following applies: hybridoma culture supernatant; cells transfected with pcDNA3.1-cynoCDH6. The method, then: 293α cells (a stable expression cell line derived from HEK293 cells expressing integrin αv and integrin β3) were prepared at 5×10^5 cells/mL in DMEM medium supplemented with 10% FBS. In accordance with transduction procedures for using Lipofectamine 2000 (Thermo Fisher Scientific Inc.), DNA of pcDNA3.1-hCDH6 or pcDNA3.1-cynoCDH6, or pcDNA3.1 as a negative control was introduced into the 293α cells, and the cells were dispensed in an amount of 100 μL/well onto a 96-well plate (Corning Inc.). Thereafter, the cells were cultured under conditions of 37° C. and 5% CO2 in DMEM medium supplemented with 10% FBS for 24 to 27 hours. The obtained transfected cells were used for Cell-ELISA in an adhesive state.
Chain of cynomolgus monkey CDH6 (as listed by the source): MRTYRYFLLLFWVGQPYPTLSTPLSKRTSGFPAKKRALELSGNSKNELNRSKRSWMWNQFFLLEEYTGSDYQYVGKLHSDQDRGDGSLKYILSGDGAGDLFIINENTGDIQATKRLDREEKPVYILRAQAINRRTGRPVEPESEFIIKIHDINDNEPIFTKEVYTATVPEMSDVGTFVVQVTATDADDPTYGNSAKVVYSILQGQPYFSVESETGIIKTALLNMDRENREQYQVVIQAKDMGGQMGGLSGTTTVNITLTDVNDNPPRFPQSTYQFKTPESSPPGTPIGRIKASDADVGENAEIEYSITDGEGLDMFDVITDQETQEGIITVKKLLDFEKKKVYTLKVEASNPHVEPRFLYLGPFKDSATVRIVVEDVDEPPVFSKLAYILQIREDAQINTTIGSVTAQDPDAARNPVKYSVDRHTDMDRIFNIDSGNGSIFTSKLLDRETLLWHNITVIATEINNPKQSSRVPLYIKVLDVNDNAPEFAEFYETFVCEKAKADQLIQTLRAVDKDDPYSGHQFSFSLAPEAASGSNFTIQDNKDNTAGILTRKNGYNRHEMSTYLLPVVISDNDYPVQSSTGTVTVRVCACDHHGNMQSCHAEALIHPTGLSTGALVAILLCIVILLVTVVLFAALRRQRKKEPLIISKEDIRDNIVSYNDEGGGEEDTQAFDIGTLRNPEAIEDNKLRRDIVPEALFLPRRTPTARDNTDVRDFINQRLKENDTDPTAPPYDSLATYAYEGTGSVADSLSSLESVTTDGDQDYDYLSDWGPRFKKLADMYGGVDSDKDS
The culture supernatant of the 293α cells transfected with the expression vector prepared in Reference Example 1)-4-1 was removed, and the culture supernatant from each hybridoma was then added to the 293α cells transfected with pcDNA3.1-hCDH6 or pcDNA3.1-cynoCDH6, or pcDNA3.1. The cells were left standing at 4° C. for 1 hour. The cells in the wells were washed once with PBS (+) supplemented with 5% FBS, and thereafter, Anti-Rat IgG-Peroxidase antibody produced in rabbit (Sigma-Aldrich Co. LLC) that had been 500-fold diluted with PBS (+) supplemented with 5% FBS was added to the wells. The cells were left standing at 4° C. for 1 hour. The cells in the wells were washed three times with PBS (+) supplemented with 5% FBS, and thereafter, OPD coloring solution (which had been prepared by dissolving o-phenylenediamine dihydrochloride (Wako Pure Chemical Industries, Ltd.) and H2O2 in an OPD solution (0.05 M trisodium citrate, 0.1 M disodium hydrogen phosphate 12-water; pH 4.5), so that the substances became 0.4 mg/ml and 0.6% (v/v), respectively, was added in an amount of 100 μL/well to the wells. A coloring reaction was carried out with occasional stirring. Thereafter, 1 M HCl was added to the plate (100 μL/well) to terminate the coloring reaction, followed by measurement of the absorbance at 490 nm using a plate reader (ENVISION: PerkinElmer, Inc.).
293T cells were seeded in a 225-cm^2 flask (Sumitomo Bakelite Co., Ltd.) at 5×10^4 cells/cm^2, and the cells were then cultured overnight under conditions of 37° C. and 5% CO2 in DMEM medium supplemented with 10% FBS. pcDNA3.1-cynoCDH6 or pcDNA3.1 as a negative control was introduced into the 293T cells using Lipofectamine 2000, and the cells were further cultured overnight under conditions of 37° C. and 5% CO2. […]
The binding specificity to cynomolgus monkey CDH6 of an antibody produced from the human CDH6- and cynomolgus monkey CDH6-binding antibody-producing hybridomas that had been selected by Cell-ELISA in Reference Example 1)-4 was further confirmed by flow cytometry. […] The data was analyzed using FlowJo (Tree Star, Inc.). […]
In general terms: ELISA stands for enzyme-linked immunosorbent assay.
In the case of B1, the “binding to monkey CDH6” value is “bind specifically and strongly”.

As for B2, the “binding to monkey CDH6” value was “bind specifically and strongly”. Under B3 stands “bind specifically and strongly”; under B4, “bind specifically and strongly”.
